{"source": "paper PMC9371678", "target": "HA-PTH1R_(mTurquoise/mCitrine) (human) (UniProt Q03431)", "sequence (Q03431 27-593)": "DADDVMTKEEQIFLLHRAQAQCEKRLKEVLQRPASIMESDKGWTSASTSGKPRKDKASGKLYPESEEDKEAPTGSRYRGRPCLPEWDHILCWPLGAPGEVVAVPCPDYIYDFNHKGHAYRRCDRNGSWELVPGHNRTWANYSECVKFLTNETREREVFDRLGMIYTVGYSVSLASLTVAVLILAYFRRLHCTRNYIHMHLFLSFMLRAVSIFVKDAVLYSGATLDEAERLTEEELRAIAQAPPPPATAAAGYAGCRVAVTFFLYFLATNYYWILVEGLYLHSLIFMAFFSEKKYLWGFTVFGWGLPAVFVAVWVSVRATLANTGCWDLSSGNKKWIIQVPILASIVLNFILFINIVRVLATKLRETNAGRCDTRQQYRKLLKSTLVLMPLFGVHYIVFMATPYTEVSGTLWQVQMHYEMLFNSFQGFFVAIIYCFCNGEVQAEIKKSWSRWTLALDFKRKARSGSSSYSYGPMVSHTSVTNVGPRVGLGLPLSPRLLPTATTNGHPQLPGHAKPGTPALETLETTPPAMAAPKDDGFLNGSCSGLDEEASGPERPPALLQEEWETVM", "data": [{"substance": "parathyroid hormone PTH (1–34) (peptide)", "values": [{"measurement": "pEC50 of the PTH-induced FRET change of the PTH1R (FRET) conformational biosensor (plate reader, HEK293 cells), with RAMP2 (SNAP) coexpressed (1 µg cDNA)", "result": 8.59}, {"measurement": "pEC50 of the PTH-induced FRET change of the PTH1R (FRET) conformational biosensor (plate reader, HEK293 cells), without RAMP2", "result": 8.73}]}]}
